The values below come from paper PMC5733569, “Sbp1 modulates the translation of Pab1 mRNA in a poly(A)- and RGG-dependent manner” (RNA, 2018).

The test system of data set [1] is Sbp1RRM1 (Saccharomyces cerevisiae). The experiment in a line: EMSA. The following applies: EMSA: native 8% PAGE in THEM buffer (34 mM Tris base, 57 mM Hepes, 0.1 mM EDTA, 2.5 mM MgCl2); binding buffer salt, pH and temperature not given in the ….
Data set [2] concerns Pab1 (Saccharomyces cerevisiae). Briefly: EMSA. The following applies: EMSA: native 8% PAGE in THEM buffer (34 mM Tris base, 57 mM Hepes, 0.1 mM EDTA, 2.5 mM MgCl2); binding buffer salt, pH and temperature not given in the …. Background: Mobility shift assays separate free from complexed probe on a gel.
In data set [3] the test system is Sbp1 (Saccharomyces cerevisiae). Briefly: EMSA. Conditions: Hill coefficient 2.1 +/- 0.1; EMSA: native 8% PAGE in THEM buffer (34 mM Tris base, 57 mM Hepes, 0.1 mM EDTA, 2.5 mM MgCl2); binding buffer salt, pH and temperature not given in the ….
Data set [4] relates to Sbp1RRM2 (Saccharomyces cerevisiae). Briefly: EMSA. The following applies: EMSA: native 8% PAGE in THEM buffer (34 mM Tris base, 57 mM Hepes, 0.1 mM EDTA, 2.5 mM MgCl2); binding buffer salt, pH and temperature not given in the ….
The subject of data set [5] is Sbp1RGG (Saccharomyces cerevisiae). The experiment in a line: EMSA. The following applies: EMSA: native 8% PAGE in THEM buffer (34 mM Tris base, 57 mM Hepes, 0.1 mM EDTA, 2.5 mM MgCl2); binding buffer salt, pH and temperature not given in the ….
Data set [6] has as its target Pab1 (purified, as added in the IgG-pulldown and EMSA) (S. cerevisiae) (UniProt P04147).
Data set [7] deals with T1, C-terminal TAP-tagged eIF4G1 (S. cerevisiae, UniProt P39935 1-952).
T1 construct: eIF4G1, translation initiation factor of S. cerevisiae; the TAP tag was inserted at the end of the eIF4G1 gene in its chromosome locus; also called eIF4G1-TAP; source: RNase A and 1 M KCl wash to remove endogenous RNAs
T1 sequence (looked up): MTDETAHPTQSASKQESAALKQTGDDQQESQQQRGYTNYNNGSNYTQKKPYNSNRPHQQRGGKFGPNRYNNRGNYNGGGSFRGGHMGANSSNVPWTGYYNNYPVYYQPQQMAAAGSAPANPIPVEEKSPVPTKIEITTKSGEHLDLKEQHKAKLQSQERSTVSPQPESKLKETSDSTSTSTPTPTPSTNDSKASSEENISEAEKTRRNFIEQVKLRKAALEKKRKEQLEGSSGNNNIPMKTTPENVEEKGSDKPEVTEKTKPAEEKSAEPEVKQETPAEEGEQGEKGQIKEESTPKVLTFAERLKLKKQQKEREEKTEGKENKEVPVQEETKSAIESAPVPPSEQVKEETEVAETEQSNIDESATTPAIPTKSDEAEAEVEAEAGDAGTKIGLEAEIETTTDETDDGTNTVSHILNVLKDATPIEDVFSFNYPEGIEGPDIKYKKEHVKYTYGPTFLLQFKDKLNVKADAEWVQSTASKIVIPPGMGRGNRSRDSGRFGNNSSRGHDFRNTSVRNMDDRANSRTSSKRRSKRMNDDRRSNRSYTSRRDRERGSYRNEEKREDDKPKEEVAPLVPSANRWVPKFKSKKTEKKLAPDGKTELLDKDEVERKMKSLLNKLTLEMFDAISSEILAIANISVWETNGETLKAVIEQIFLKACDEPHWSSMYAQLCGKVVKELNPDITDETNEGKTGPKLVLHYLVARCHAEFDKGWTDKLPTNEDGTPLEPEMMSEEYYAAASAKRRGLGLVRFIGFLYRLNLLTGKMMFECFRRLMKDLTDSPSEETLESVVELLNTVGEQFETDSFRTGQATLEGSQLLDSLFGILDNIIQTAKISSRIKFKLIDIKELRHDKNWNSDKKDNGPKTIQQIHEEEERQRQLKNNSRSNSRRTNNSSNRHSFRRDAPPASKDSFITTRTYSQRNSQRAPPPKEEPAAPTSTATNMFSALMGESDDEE
Briefly: pull-down; IgG-pulldown: eIF4G1-TAP with purified Pab1 and Sbp1 (or Sbp1^m) in the presence of 10x 5′UTR_Pab1 RNA. Conditions: both partners purified.

One may read the Kd as the equilibrium constant for the complex coming apart. In the case of 5'UTRPab1, the Kd in data set [1] came out at 1100 nM; in data set [2], 31.2 nM; in data set [3], 26.5 nM; in data set [4], 900 nM; in data set [5] it was 2700 nM.

B1: Sbp1 (natural protein)
chain: MSAEIEEATNAVNNLSINDSEQQPRAPTHKTVIDPEDTIFIGNVAHECTEDDLKQLFVEEFGDEVSVEIPIKEHTDGHIPASKHALVKFPTKIDFDNIKENYDTKVVKDREIHIKRARTPGQMQRGGFRGRGGFRGRGGFRGGFRGGYRGGFRGRGNFRGRGGARGGFNGQKREKIPLDQMERSKDTLYINNVPFKATKEEVAEFFGTDADSISLPMRKMRDQHTGRIFTSDSANRGMAFVTFSGENVDIEAKAEEFKGKVFGDRELTVDVAVIRPENDEEEIEQETGSEEKQE
Turning to B1, the cap-dependent translation initiation activity of the 5′UTR Pab1 luciferase reporter in yeast cell extract with an increasing amount of Sbp1 in data set [6] fell in the range of 20 to 60 % decrease.

B2: Pab1 (purified, as added in the IgG-pulldown and EMSA) (natural protein, S. cerevisiae, UniProt P04147 1-577, looked up)
chain: MADITDKTAEQLENLNIQDDQKQAATGSESQSVENSSASLYVGDLEPSVSEAHLYDIFSPIGSVSSIRVCRDAITKTSLGYAYVNFNDHEAGRKAIEQLNYTPIKGRLCRIMWSQRDPSLRKKGSGNIFIKNLHPDIDNKALYDTFSVFGDILSSKIATDENGKSKGFGFVHFEEEGAAKEAIDALNGMLLNGQEIYVAPHLSRKERDSQLEETKAHYTNLYVKNINSETTDEQFQELFAKFGPIVSASLEKDADGKLKGFGFVNYEKHEDAVKAVEALNDSELNGEKLYVGRAQKKNERMHVLKKQYEAYRLEKMAKYQGVNLFVKNLDDSVDDEKLEEEFAPYGTITSAKVMRTENGKSKGFGFVCFSTPEEATKAITEKNQQIVAGKPLYVAIAQRKDVRRSQLAQQIQARNQMRYQQATAAAAAAAAGMPGQFMPPMFYGVMPPRGVPFNGPNPQQMNPMGGMPKNGMPPQFRNGPVYGVPPQGGFPRNANDNNQFYQQKQRQALGEQLYKKVSAKTSNEEAAGKITGMILDLPPQEVFPLLESDELFEQHYKEASAAYESFKKEQEQQTEQA
notes: it may be the same molecule as m1
In the case of B2, the binding result in data set [7] is listed as “binds”.
